Reference: patent US20100029573A1 (IMMATICS BIOTECHNOLOGIES, published 2010)

Assays:
[1] = target: MHC-A*02 tetramers complexed with the peptide … (human); experiment: double tetramer staining, flow cytometry
[2] = target: T1, HLA-B*0702 (human); experiment: recombinant B*0702 complexed with peptide, tetramer and microspheres
T1 construct: MHC class I molecule without the peptide
From the text: Predetermined avidity of human CD8 T cells expanded on calibrated MHC/anti-CD28-coated microspheres. J. Immunol. […] Each dot represents the percentage of tetramer+among CD8+ lymphocytes from one well.

[3] = target: T1, HLA-B*0702; experiment: peptide-pulsed KM22 cells; recombinant B*0702 tetramers made with the peptide
Description: For the CTL assays, KM22 and JY tumor cell lines were used as target cells. Peptide-pulsed cells were pulsed with 50 μg/mL peptide for 2 hours. […] Then, 10⁴ cells/well were added to a 96-well round bottom plate. Various numbers of CTL were added to obtain an end volume of 200 μL, with subsequent incubation for 4 hrs at 37° C. Then, supernatants (500 μL/well) were harvested and counted in a beta-plate counter. Specific lysis was calculated in percent as follows: 100×(experimental release−spontaneous release/maximum release−spontaneous release). Each, spontaneous and maximum release were determined in presence of either medium or 2% Triton X-100.
Cell lines KM22 and JY are HLA-B*07 positive.

percent of stimulated cells binding the tetramer [1]	Molecule	further results
19.3%	CD8-positive T cells stimulated with melan-A peptide/MHC-A*02 tetramer complexes	–
8%	CD8-positive T cells stimulated with RGS-5 peptide …/MHC-A*02 tetramer complexes	–
–	IARNLTQQL (also called ADFP)	binding result [2]: binds
–	FPSLREAAL (also called MAGEA1; MAGE-1)	binding result [3]: binds
